{
  "source": "patent US20230212254A1",
  "about": "(published 2023)",
  "binders": {"B1": {"name": "PSMA-specific CAR (Pbbz): scFv derived from the PSMA-specific J591 antibody, CD8 hinge-transmembrane domain, 4-1BB co-stimulatory domain, CD3ζ intracellular … (other)", "chain": "DIVMTQSHKFMSTSVGDRVSIICKASQDVGTAVDWYQQKPGQSPKLLIYWASTRHTGVPDRFTGSGSGTDFTLTITNVQSEDLADYFCQQYNSYPLTFGAGTMLDLKRGGGGSGGGGSGGGGSEVQLQQSGPELKKPGTSVRISCKTSGYTFTEYTIHWVKQSHGKSLEWIGNINPNNGGTTYNQKFEDKATLTVDKSSSTAYMELRSLTSEDSAVYYCAAGWNFDYWGQGTTLTVSSTTTPAPRPPTPAPTIASQPLSLRPEACRPAAGGAVHTRGLDFACDIYIWAPLAGTCGVLLLSLVITLYCKRGRKKLLYIFKQPFMRPVQTTQEEDGCSCRFPEEEEGGCELRVKFSRSADAPAYQQGQNQLYNELNLGRREEYDVLDKRRGRDPEMGGKPRRKNPQEGLYNELQKDKMAEAYSEIGMKGERRRGKGHDGLYQGLSTATKDTYDALHMQALPPR", "notes": "The Pbbz#F, #C, #S2 and #FCS2 cells are treated as carrying the same CAR"}},
  "target": "T1, FITC-labeled recombinant human PSMA protein (Acro, #PSA-HF244) (human, UniProt Q04609 44-750, FITC label)",
  "T1 construct": "Bought reagent",
  "T1 sequence (Q04609 44-750 limits assumed)": "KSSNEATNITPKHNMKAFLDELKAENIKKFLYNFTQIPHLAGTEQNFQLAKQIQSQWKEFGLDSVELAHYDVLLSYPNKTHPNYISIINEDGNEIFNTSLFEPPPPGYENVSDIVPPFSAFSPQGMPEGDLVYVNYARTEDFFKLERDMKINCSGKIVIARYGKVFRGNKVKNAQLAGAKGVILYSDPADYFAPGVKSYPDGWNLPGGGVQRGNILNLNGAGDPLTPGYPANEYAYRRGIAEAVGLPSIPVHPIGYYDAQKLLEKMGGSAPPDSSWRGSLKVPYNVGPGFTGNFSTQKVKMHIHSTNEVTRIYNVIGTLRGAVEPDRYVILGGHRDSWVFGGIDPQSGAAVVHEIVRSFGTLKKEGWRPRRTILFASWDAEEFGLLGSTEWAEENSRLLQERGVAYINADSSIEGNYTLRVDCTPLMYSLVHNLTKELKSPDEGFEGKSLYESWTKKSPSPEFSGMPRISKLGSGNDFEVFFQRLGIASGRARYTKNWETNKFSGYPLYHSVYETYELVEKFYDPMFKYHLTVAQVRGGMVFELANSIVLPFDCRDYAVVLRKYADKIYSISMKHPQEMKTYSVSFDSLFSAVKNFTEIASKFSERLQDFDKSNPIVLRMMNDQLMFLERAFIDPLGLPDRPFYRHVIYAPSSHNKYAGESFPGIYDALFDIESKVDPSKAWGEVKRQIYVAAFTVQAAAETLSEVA",
  "assay": "flow cytometry, gating of CAR(+) cells for T cell subset analysis (FIG. 79)",
  "protocol": "Eight days after the start of stimulation, the CAR-T cells constructed in Example 8 were analyzed for T cell subsets using a flow cytometer: they were classified into stem cell-like memory T cells (T memory stem cells, CD45RA⁺CCR7⁺), central memory T cells (CD45RA⁻CCR7⁺), effector memory T cells (CD45RA⁻ CCR7⁻) and effector T cells (CD45RA⁺CCR7⁻) according to the presence or absence of the expression of CD45RA and CCR7. […] In addition, when analyzing PSMA-specific CAR(+) cells, FITC-labeled recombinant human PSMA protein (Acro, #PSA-HF244) was used to stain the CAR.",
  "data": [
    {"binder": "B1", "values": [
      {"measurement": "binding result", "value": "binds"}
    ]}
  ]
}
